Article PMC3876286 (ACS chemical biology, 2013)

System: r(CUG)12
Assay: SPR binding to r

koff (1): 0.00203 s⁻¹
kon (1): 3280 M⁻¹ s⁻¹
B1: muscleblind-like 1 protein (protein, UniProt Q9NR56 1-388, looked up)
Muscleblind-like protein 1: MAVSVTPIRDTKWLTLEVCREFQRGTCSRPDTECKFAHPSKSCQVENGRVIACFDSLKGRCSRENCKYLHPPPHLKTQLEINGRNNLIQQKNMAMLAQQMQLANAMMPGAPLQPVPMFSVAPSLATNASAAAFNPYLGPVSPSLVPAEILPTAPMLVTGNPGVPVPAAAAAAAQKLMRTDRLEVCREYQRGNCNRGENDCRFAHPADSTMIDTNDNTVTVCMDYIKGRCSREKCKYFHPPAHLQAKIKAAQYQVNQAAAAQAAATAAAMTQSAVKSLKRPLEATFDLGIPQAVLPPLPKRPALEKTNGATAVFNTGIFQYQQALANMQLQQHTAFLPPVPMVHGATPATVSAATTSATSVPFAATATANQIPIISAEHLTSHKYVTQM
Kd (read-out: Kobs (1)): 619 nM
